Source: patent US20230045151A1, “COMPOSITIONS AND METHODS” (MONASH UNIVERSITY, priority 2020, published 2023)

Tested on: CCL20
Experiment: In vitro stimulation of lung cells enriched for airway epithelial cells, chemokine release
Format: cell-based, mouse
Settings: LPS 10 μg/ml, 24 hours; EGF 100 ng/ml, amphiregulin 500 ng/ml or gefitinib 0.16 μM; lower efficacy than PCS
Protocol: Mice were euthanized by CO2 inhalation, instilled with a 1.5 ml dispase II (Sigma-Aldrich) intratracheally, followed by intratracheal injection of 0.5 ml 1% low melting point agarose (Sigma-Aldrich). Lungs were then covered with ice for 3 min, removed and placed in a 15 ml falcon tube with 2 ml of dispase II, and incubated for 45 min with gentle agitation. This was followed by mechanical disruption of the lung lobes using forceps in DMEM supplemented with DNAse I (Sigma-Aldrich, 1U/ml), filtration through 70- and 40-μM cell strainers (Falcon®, Corning) and lysis of erythrocytes using red blood cell lysing buffer (BD Biosciences). Lung cells were plated in a flat-bottom 24-well or 96-well plates (Costar) coated with fibronectin (Sigma-Aldrich, 10 μg/ml) at the density of 1 mln or 0.2 mln cells/well, respectively.
5% CO2, after which the supernatant was collected and stored at −20° C. until further use.

B1: amphiregulin: low affinity EGFR ligand (protein, UniProt P15514 101-187, looked up)
Amphiregulin: SVRVEQVVKPPQNKTESENTSDKPKRKKKGGKNGKNRRNRKKKNPCNAEFQNFCIHGECKYIEHLEAVTCKCQQEYFGERCGEKSMK
modifications: Amphiregulin
**Q.** With B1 as the molecule, how does the “CCL20 production by lung cells stimulated with LPS” value read?
**A.** selective reduction
